From the Human Domainome abundance scans (Beltran et al. 2025)
± gives the uncertainty stated by the source.

B1: Androgen receptor, residues 557 to 632; numbered along this chain, P10275 (parent)
chain: QKTCLICGDEASGCHYGALTCGSCKVFFKRAAEGKQKYLCASRNDCTIDKFRRKNCPSCRLRKCYEAGMTLGARKL

Variants of: B1
Test: abundance fitness (aPCA) (normalised: wild type 0, dead -1); higher = more abundant; growth selection in yeast, the domain comes from the species named
Details: Homo sapiens

| Variant | abundance fitness |
| --- | --- |
| A32S | -0.052 ± 0.045 |
| C46W | -0.878 ± 0.095 |
| G22W | -0.034 ± 0.052 |
| K37M | -0.131 ± 0.1 |
| I48H | -0.482 ± 0.058 |
| A31K | -0.627 ± 0.18 |
| K37N | 0.073 ± 0.15 |
| K25I | -0.24 ± 0.033 |
| A73Q | -0.138 ± 0.1 |
| D9Y | -0.609 ± 0.4 |
| A31Q | -0.075 ± 0.062 |
| A18D | -0.232 ± 0.073 |
| A73I | -0.101 ± 0.14 |
| E33Y | -0.187 ± 0.064 |
| C24Y | -1.08 ± 0.15 |
| R74Q | 0.023 ± 0.1 |
| A73M | -0.18 ± 0.12 |
| D9L | -0.626 ± 0.15 |
| L5G | -0.189 ± 0.041 |
| A31D | -0.503 ± 0.15 |
| T20K | -0.755 ± 0.24 |
| E33I | 0.03 ± 0.062 |
| I48S | -0.251 ± 0.032 |
| R52G | -0.001 ± 0.069 |

| Variant | abundance fitness |
| --- | --- |
| N55M | 0.216 ± 0.11 |
| G22D | -0.033 ± 0.064 |
| R74C | 0.06 ± 0.082 |
| C40Q | -0.482 ± 0.15 |
| I48P | -0.25 ± 0.041 |
| G13K | -0.229 ± 0.088 |
| L19Y | -0.101 ± 0.081 |
| L5V | -0.145 ± 0.044 |
| V26G | -0.001 ± 0.046 |
| K50Y | -0.124 ± 0.26 |
| K29R | -0.075 ± 0.057 |
| L19T | -0.017 ± 0.13 |
| K63A | -0.141 ± 0.084 |
| T47F | -0.077 ± 0.039 |
| C46H | -0.38 ± 0.083 |
| R74G | 0.05 ± 0.05 |
| G72A | -0.011 ± 0.075 |
| T47P | 0.007 ± 0.035 |
| Q36P | -0.006 ± 0.052 |
| C21P | -1.21 ± 0.21 |
| D45S | -0.275 ± 0.13 |
| L5H | -0.137 ± 0.069 |
| C24H | -0.891 ± 0.095 |
| Y38K | -0.085 ± 0.099 |

| Variant | abundance fitness |
| --- | --- |
| A41L | -0.047 ± 0.077 |
| H15Y | -0.237 ± 0.16 |
| C14T | 0.099 ± 0.11 |
| D45L | -0.177 ± 0.075 |
| N44C | -0.419 ± 0.15 |
| A41D | 0.041 ± 0.081 |
| R74E | 0.066 ± 0.1 |
| A18F | -0.684 ± 0.12 |
| E33G | 0.044 ± 0.042 |
| T3A | -0.081 ± 0.061 |
| G22Y | -0.207 ± 0.059 |
| L19D | -0.048 ± 0.063 |
| Q1M | 0.007 ± 0.1 |
| L71V | -0.085 ± 0.064 |
| S12D | -0.031 ± 0.075 |
| T3V | -0.245 ± 0.063 |
| A41K | -0.368 ± 0.16 |
| F27T | -0.91 ± 0.07 |
| Y16N | -0.307 ± 0.12 |
| E33C | 0.072 ± 0.071 |
| E33A | -0.121 ± 0.05 |
| F27M | -1.01 ± 0.14 |
| R30N | 0.014 ± 0.069 |
| K35S | -0.031 ± 0.044 |

| Variant | abundance fitness |
| --- | --- |
| D49G | -0.197 ± 0.073 |
| S12I | -0.091 ± 0.12 |
| K63P | -0.949 ± 0.23 |
| I48Y | -0.177 ± 0.043 |
| A32Q | 0.034 ± 0.058 |
| Y65T | -0.276 ± 0.1 |
| C24Q | -0.932 ± 0.086 |
| R30F | 0.03 ± 0.052 |
| Q36L | -0.075 ± 0.036 |
| Q36F | -0.156 ± 0.066 |
| Q1C | -0.019 ± 0.14 |
| L71N | -0.129 ± 0.072 |
| Y65A | -0.158 ± 0.085 |
| K29N | -0.123 ± 0.14 |
| Q1V | 0.06 ± 0.12 |
| R52F | -0.164 ± 0.076 |
| V26I | 0.013 ± 0.051 |
| R30T | 0.01 ± 0.065 |
| K63S | -0.227 ± 0.07 |
| C14M | -0.087 ± 0.11 |
| T47L | -0.041 ± 0.029 |
| G72N | -0.136 ± 0.13 |
| G8N | -0.29 ± 0.25 |
| A18E | -0.617 ± 0.074 |

| Variant | abundance fitness |
| --- | --- |
| Q1S | -0.058 ± 0.082 |
| L5W | -0.122 ± 0.065 |
| C46I | -0.784 ± 0.13 |
| F27A | -0.729 ± 0.052 |
| K29V | -0.215 ± 0.08 |
| T47Y | -0.071 ± 0.037 |
| C24P | -0.853 ± 0.069 |
| I48E | -0.348 ± 0.05 |
| K63V | -0.142 ± 0.066 |
| P57Y | -0.03 ± 0.051 |
| N44H | -0.229 ± 0.13 |
| R74P | 0.13 ± 0.1 |
| K63L | -0.111 ± 0.061 |
| D49C | -0.538 ± 0.27 |
| Q1H | -0.504 ± 0.32 |
| K35C | -0.007 ± 0.07 |
| K50H | -0.087 ± 0.31 |
| C4L | -0.745 ± 0.35 |
| S58N | -0.189 ± 0.062 |
| R74F | -0.165 ± 0.15 |
| A18G | -0.335 ± 0.033 |
| Q1K | 0.076 ± 0.079 |
| H15L | -0.211 ± 0.074 |
| A73N | -0.047 ± 0.17 |

| Variant | abundance fitness |
| --- | --- |
| I48L | -0.204 ± 0.033 |
| G72Q | 0.089 ± 0.13 |
| Y65F | -0.056 ± 0.1 |
| H15K | -0.106 ± 0.097 |
| P57F | -0.024 ± 0.069 |
| K63W | -0.482 ± 0.19 |
| C21E | -0.68 ± 0.12 |
| A32D | 0.007 ± 0.097 |
| C21W | -0.694 ± 0.2 |
| C46V | -0.942 ± 0.088 |
| K25R | -0.066 ± 0.021 |
| L19W | 0.029 ± 0.091 |
| P57E | 0.044 ± 0.11 |
| G8A | 0.009 ± 0.067 |
| Y38I | 0.111 ± 0.1 |
| Y16H | -0.333 ± 0.21 |
| C46K | -0.735 ± 0.12 |
| G13I | -0.416 ± 0.28 |
| S12L | 0.055 ± 0.074 |
| Y65V | 0.02 ± 0.059 |
| N55P | -0.099 ± 0.074 |
| K63T | -0.033 ± 0.068 |
| L39Y | 0.045 ± 0.046 |
| L39R | -0.006 ± 0.028 |

| Variant | abundance fitness |
| --- | --- |
| S58T | -0.229 ± 0.068 |
| I6S | -0.617 ± 0.16 |
| N55L | -0.022 ± 0.054 |
| Y65C | 0.036 ± 0.11 |
| R74H | -0.036 ± 0.12 |
| Q36G | 0.011 ± 0.056 |
| T3I | 0.009 ± 0.23 |
| K29I | -0.353 ± 0.099 |
| F27Q | -0.839 ± 0.093 |
| A73T | -0.205 ± 0.27 |
| S23H | -0.036 ± 0.077 |
| T20L | -0.166 ± 0.043 |
| S58A | -0.035 ± 0.068 |
| I6R | -0.525 ± 0.11 |
| Y65R | -0.117 ± 0.049 |
| G22V | -0.141 ± 0.042 |
| A18C | -0.084 ± 0.047 |
| Q36M | -0.084 ± 0.064 |
| G17T | -0.411 ± 0.054 |
| G13S | -0.034 ± 0.074 |
| T3C | 0.014 ± 0.13 |
| T70I | -0.344 ± 0.29 |
| A41F | -0.113 ± 0.09 |
